From publication PMC3348928, “Ordered Self-Assembly Mechanism of a Spherical Oncoprotein Oligomer Triggered by Zinc Removal and Stabilized by an Intrinsically Disordered Domain” (PLoS ONE, 2012)

Assays:
[1] = target: E7 (Human papillomavirus type 16) (UniProt P03129); settings: cited from earlier work
[2] = target: Recombinant E7 HPV-16 protein (human papillomavirus type 16 E7 oncoprotein) (human papillomavirus type 16) (UniProt P03129); experiment: thioflavin T fluorescence kinetics; 10 mM sodium phosphate pH 7.0, 1 mM DTT, 20 µM ThT; triggered by 1.0 mM TPEN; 15 µM protein
[3] = target: Recombinant E7 HPV-16 protein (human papillomavirus type 16 E7 oncoprotein) (human papillomavirus type 16) (UniProt P03129); experiment: thioflavin T fluorescence kinetics; 10 mM sodium phosphate pH 7.0, 1 mM DTT, 20 µM ThT; triggered by 1.0 mM EDTA; 15 µM protein (Figure 3)
[4] = target: Recombinant E7 HPV-16 protein (human papillomavirus type 16 E7 oncoprotein) (human papillomavirus type 16) (UniProt P03129); experiment: thioflavin T fluorescence kinetics; ThT traces at different initial E7 concentrations after EDTA, analysed with the kinetically limited (KL) assembly model of Zlotnick; 10 mM sodium phosphate pH 7.0, 1 mM DTT, 20 µM ThT
[5] = target: the molecule itself; experiment: dynamic light scattering; 15 µM protein, 10 mM sodium phosphate pH 7.0, 1.0 mM DTT, 25°C; after addition of 1.0 mM EDTA (zinc removal); E7 at the plateau, E7C after 2 h and 24 h

For E7 (from UniProt P03129), the Kd [1] is given as 1000 nM.

In the case of “Recombinant E7 HPV-16 protein (human papillomavirus type 16 E7 oncoprotein) (from UniProt P03129 1-98) (natural protein)”, the half-life of the slow oligomerization phase, TPEN [2] is reported as under 6 min, the half-life of the slow increase in ThT binding (oligomerisation phase) [3] is reported as 10 min and the half-life of the slow oligomerization phase, EDTA [3] is reported as under 8 min. It also gave an overall average time for each monomer added at 20 µM [4] of 28 s and a z-nucleus size n (KL model) [4] of 1.2.

B1: E7 HPV-16 C-terminal domain, spanning residues 40-98 (domain or fragment, human papillomavirus type 16, UniProt P03129 40-98, looked up)
chain: GPAGQAEPDRAHYNIVTFCCKCDSTLRLCVQSTHVDIRTLEDLLMGTLGIVCPICSQKP
notes: The introduction gives 58 amino acids for E7C, but residues 40-98 are 59; also called E7C; source: recombinant, expressed and purified as previously described [52]
B1: binds [5].
